Test results reported in paper PMC9583166 (Frontiers in Cell and Developmental Biology, 2022).
Numbering of substitutions follows the chain as printed. Numbers in names are those of the source. Values belong to the binder of their own block, whether it stands above or below them.

What was measured:
Assay in all cases: fluorescence polarisation; increasing amounts of SIN1 protein titrated to 1 µM mGppNHp-bound GTPase; 21°C; 30 mM Tris/HCl pH 7.5, 150 mM NaCl, 5 mM MgCl2, 3 mM dithiothreitol; quadratic ligand binding equation
Details in all cases: both partners purified
KRAS4A [1] = target: T1, KRAS4A ( (the printed accession is a …, UniProt P01116-1 1-189))
T1 construct: KRAS isoform 4A, full length gene; Loaded with mant-GppNHp for fluorescence polarisation; A farnesylated KRAS4A from insect cells was used only in liposome flotation

RIT1 [2] = target: T2, RIT1 ( (the printed accession is a …, UniProt Q92963 1-219))
T2 construct: RIT1, full length gene; Loaded with mant-GppNHp for fluorescence polarisation
T2 sequence (Q92963 whole entry): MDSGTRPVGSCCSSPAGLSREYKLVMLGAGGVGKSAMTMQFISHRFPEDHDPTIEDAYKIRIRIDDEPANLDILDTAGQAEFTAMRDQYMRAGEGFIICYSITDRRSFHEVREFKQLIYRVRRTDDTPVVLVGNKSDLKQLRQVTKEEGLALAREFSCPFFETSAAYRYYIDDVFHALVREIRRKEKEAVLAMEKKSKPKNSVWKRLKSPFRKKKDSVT

RRAS = target: T3, RRAS ( (the printed accession is a …, UniProt P10301 1-218))
T3 construct: RRAS (RRAS1), full length gene; Loaded with mant-GppNHp for fluorescence polarisation; also called RRAS1
T3 sequence (looked up): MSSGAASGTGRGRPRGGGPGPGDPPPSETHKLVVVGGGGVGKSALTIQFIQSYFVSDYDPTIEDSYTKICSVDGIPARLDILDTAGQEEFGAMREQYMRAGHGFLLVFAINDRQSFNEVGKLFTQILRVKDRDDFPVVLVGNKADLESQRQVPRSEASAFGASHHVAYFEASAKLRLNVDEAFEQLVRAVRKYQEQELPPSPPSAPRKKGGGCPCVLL

KRAS4B = target: T4, KRAS4B ( (the printed accession is a …, UniProt P01116-2 1-188))
T4 construct: KRAS isoform 4B, full length gene; Loaded with mant-GppNHp for fluorescence polarisation

KRAS4A [3] = target: T1, KRAS4A; remark: listed apart in the source
ERAS = target: T5, ERAS ( (the printed accession is a …, UniProt Q7Z444 1-233))
T5 construct: ERAS, full length gene; Loaded with mant-GppNHp for fluorescence polarisation
T5 sequence (looked up): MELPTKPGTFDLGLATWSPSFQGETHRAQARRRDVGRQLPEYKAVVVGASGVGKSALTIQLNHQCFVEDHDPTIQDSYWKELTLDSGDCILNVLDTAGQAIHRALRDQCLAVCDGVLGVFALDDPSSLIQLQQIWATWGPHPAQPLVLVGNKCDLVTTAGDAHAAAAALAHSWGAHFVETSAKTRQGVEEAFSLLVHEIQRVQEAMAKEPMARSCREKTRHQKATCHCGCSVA

RALA = target: T6, RALA ( (the printed accession is a …, UniProt P11233 1-206))
T6 construct: RALA, full length gene; Loaded with mant-GppNHp for fluorescence polarisation
T6 sequence (looked up): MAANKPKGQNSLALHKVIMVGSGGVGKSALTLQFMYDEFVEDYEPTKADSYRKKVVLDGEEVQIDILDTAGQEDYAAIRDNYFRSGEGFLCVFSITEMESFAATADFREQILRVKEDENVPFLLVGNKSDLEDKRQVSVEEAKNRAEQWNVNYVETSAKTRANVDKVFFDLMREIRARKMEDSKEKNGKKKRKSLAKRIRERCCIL

RAP2A = target: T7, RAP2A ( (the printed accession is a …, UniProt P10114 1-183))
T7 construct: RAP2A, full length gene; Loaded with mant-GppNHp for fluorescence polarisation
T7 sequence (looked up): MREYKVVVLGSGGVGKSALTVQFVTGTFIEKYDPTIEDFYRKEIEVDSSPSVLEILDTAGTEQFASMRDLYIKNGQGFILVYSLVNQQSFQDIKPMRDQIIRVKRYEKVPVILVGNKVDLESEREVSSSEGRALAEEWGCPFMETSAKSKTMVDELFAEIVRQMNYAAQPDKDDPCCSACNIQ

TC21 = target: T8, TC21 ( (the printed accession is a …, UniProt P62070 1-204))
T8 construct: RRAS2 (TC21), full length gene; Loaded with mant-GppNHp for fluorescence polarisation; also called RRAS2
T8 sequence (looked up): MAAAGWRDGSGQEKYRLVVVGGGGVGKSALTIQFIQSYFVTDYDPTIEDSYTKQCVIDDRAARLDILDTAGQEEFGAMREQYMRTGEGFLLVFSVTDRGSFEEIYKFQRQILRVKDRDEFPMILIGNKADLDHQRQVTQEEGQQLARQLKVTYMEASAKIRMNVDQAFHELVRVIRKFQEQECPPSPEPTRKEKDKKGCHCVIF

RHOA = target: T9, RHOA ( (the printed accession is a …, UniProt P61586 1-193))
T9 construct: RHOA, full length gene; Loaded with mant-GppNHp for fluorescence polarisation
T9 sequence (P61586 whole entry): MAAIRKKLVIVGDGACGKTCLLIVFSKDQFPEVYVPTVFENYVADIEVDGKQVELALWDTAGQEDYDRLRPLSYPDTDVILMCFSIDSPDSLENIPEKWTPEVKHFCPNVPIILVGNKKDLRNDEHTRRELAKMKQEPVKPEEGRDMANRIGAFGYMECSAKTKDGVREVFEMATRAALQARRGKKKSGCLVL

NRAS [4] = target: T10, NRAS ( (the printed accession is a …, UniProt P01111 1-189))
T10 construct: NRAS, full length gene; Loaded with mant-GppNHp for fluorescence polarisation
T10 sequence (P01111 whole entry): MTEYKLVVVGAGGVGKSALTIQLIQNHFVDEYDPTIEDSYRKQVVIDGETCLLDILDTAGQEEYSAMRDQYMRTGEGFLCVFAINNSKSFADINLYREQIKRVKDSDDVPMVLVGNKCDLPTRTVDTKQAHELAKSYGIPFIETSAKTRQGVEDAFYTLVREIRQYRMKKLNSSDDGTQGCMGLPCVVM

RHEB = target: T11, RHEB ( (the printed accession is a …, UniProt Q15382 1-184))
T11 construct: RHEB, full length gene; Loaded with mant-GppNHp for fluorescence polarisation
T11 sequence (Q15382 whole entry): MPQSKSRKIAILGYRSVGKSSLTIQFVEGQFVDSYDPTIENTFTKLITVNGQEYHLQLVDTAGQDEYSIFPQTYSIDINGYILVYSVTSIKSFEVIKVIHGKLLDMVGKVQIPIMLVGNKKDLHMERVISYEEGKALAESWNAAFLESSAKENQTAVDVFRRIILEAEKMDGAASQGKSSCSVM

RIT1 [5] = target: T2, RIT1; remark: listed apart in the source
HRAS = target: T12, HRAS ( (the printed accession is a …, UniProt P01112 1-189))
T12 construct: HRAS, full length gene; Loaded with mant-GppNHp (or mant-GDP) for fluorescence polarisation; also called HRAS•mGppNHp; HRAS•mGDP
T12 sequence (P01112 whole entry): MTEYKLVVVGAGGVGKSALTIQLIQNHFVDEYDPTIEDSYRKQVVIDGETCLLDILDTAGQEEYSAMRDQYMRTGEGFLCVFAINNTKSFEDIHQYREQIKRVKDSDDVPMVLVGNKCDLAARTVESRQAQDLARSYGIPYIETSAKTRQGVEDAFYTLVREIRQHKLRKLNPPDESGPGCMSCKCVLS

KRAS4A [6] = target: T1, KRAS4A; remark: listed apart in the source
NRAS [7] = target: T10, NRAS; remark: listed apart in the source

B1: SIN1-RBD (domain or fragment, UniProt Q9BPZ7 266-373, looked up)
chain: EKYSSPGLTSKESLFVRINAAHGFSLIQVDNTKVTMKEILLKAVKRRKGSQKVSGPQYRLEKQSEPNVAVDLDSTLESQSAWEFCLVRENSSRADGVFEEDSQIDIAT
notes: numbers count on isoform 1 (full length); As used in fluorescence polarisation; Limits: 266-373 in the methods, 279-353 in the results; also called SIN1-RBD^WT
Kd (KRAS4A [1]): 35 µM | Kd (RIT1 [2]): 112 µM | Kd (RRAS): 123 µM | Kd (KRAS4B): 33 µM | Kd (KRAS4A [3]): 34 µM | Kd (ERAS): 171 µM | Kd (RALA): 331 µM | Kd (RAP2A): 483 µM | Kd (TC21): 878 µM | Kd (RHOA): 535 µM | Kd (NRAS [4]): 31 µM | Kd (RHEB): 358 µM | Kd (RIT1 [5]): 123 µM

B2: SIN1-RBD^RR311-312EE (domain or fragment, UniProt Q9BPZ7 266-373, looked up)
chain: B1 chain with R46E, R47E
notes: numbers count on isoform 1 (full length); also called SIN-RBD^RR311,312EE; SIN1^RR311-312EE
Kd (HRAS): 461 µM | Kd (KRAS4A [6]): 952 µM

Continued by falling Kd (KRAS4A [6]), values first:

Kd (KRAS4A [6]): 654 µM
B3: SIN1-RBD^FSL289-291REE (domain or fragment, UniProt Q9BPZ7 266-373, looked up)
chain: B1 chain with F24R, S25E, L26E
notes: numbers count on isoform 1 (full length); also called SIN-RBD^FSL289-291REE; SIN1^FSL289-291REE

Kd (HRAS): 324 µM | Kd (KRAS4A [6]): 256 µM | Kd (NRAS [7]): 166 µM
B4: SIN1-RBD^K307D (domain or fragment, UniProt Q9BPZ7 266-373, looked up)
chain: B1 chain with K42D
notes: numbers count on isoform 1 (full length); also called SIN-RBD^K307D; SIN1^K307D
